Reference: patent publication US20100144847A1

Target: tropomyosin
Assay: cell-based or functional assay

GFP-CKIIα (from UniProt Q60737 1-391)
colony formation inhibition assay, A9 cells under G418 selection: > 2000 colonies
